B1: KLK5-L2-Ab4 (antibody, V domains shown)
VH: QLQLQESGPGLVKPSETLSLTCTVSGGSIPSSSYYWSWIRQPPGKGLEWIGNIYYSGSTYYNPSLKSRVTISVDTSKNQFSLKLSSVTAADTAVYYCARGEYDRSYYYWGLDVWGQGTTVTVSS
VL: not shown
B2: KLK5-L2-Ab3 (antibody, V domains shown)
VH: B1 VH with Y108F, L111M
VL: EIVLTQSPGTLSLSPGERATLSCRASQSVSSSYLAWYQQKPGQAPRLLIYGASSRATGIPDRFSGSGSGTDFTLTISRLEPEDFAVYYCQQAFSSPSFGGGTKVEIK
B3: KLK5-L2-Ab1 (antibody, V domains shown)
VH: B1 VH with P30S, S37G, N52S, Y54S, W109Y, L111M
VL: not shown
B4: KLK5-L2-Ab2 (antibody, V domains shown)
VH: B1 VH with S37A, Y106A, Y107L, W109Y, L111M
VL: not shown
B5: KLK5-L1-Ab3 (antibody, V domains shown)
VH: EVQLVESGGGLVQPGGSLRLSCAASGFTFEHYSMNWVRQAPGKGLEWVSYISSSSSYIDYADSVKGRFTISRDNAKNSLYLQMNSLRAEDTAVYYCARDLTSMQSRDYYYYGMDVWGQGTTVTVSS
VL: DIQMTQSPSSVSASVGDRVTITCRASQGISSWLAWYQQKPGKAPKLLIYAASSLQSGVPSRFSGSGSGTDFTLTISSLQPEDFATYYCQQVPIFPYTFGGGTKVEIK
B6: KLK5-L3-Ab2 (antibody, V domains shown)
VH: QVQLVQSGAEVKKPGSSVKVSCKASGGTFSGYSISWVRQAPGQGLEWMGLIFPISGTANYAQKFQGRVTITADESTSTAYMELSSLRSEDTAVYYCARGSASGYYDRSYYYYGMDVWGQGTTVTVSS
VL: B5 VL with P92S, I93S
B7: KLK5-L1-Ab2 (antibody, V domains shown)
VH: B5 VH with E30G, H31S, S33A, Y57F
VL: B5 VL
B8: KLK5-L1-Ab4 (antibody, V domains shown)
VH: B5 VH with E30N, H31D
VL: B5 VL
B9: KLK5-L3-Ab7 (antibody, V domains shown)
VH: B6 VH with K12R, G31N, S33H, L50G, I54T, S55F, Y112D
VL: B5 VL with P92I, I93S
B10: KLK5-L3-Ab1 (antibody, V domains shown)
VH: B6 VH with S16A, G27Y, S30T, S33Y, I34M, S35H, L50G, F52I
VL: B5 VL with P92S, I93S
B11: KLK5-L3-Ab5 (antibody, V domains shown)
VH: B6 VH with G99Q, Y111R
VL: B5 VL with P92S, I93S
B12: KLK5-L3-Ab4 (antibody, V domains shown)
VH: B6 VH with S30N, G31N, S33H, L50G, F52I, I54P, S55F, N59H, S100E, M114L
VL: B5 VL with P92S, I93S
B13: KLK5-L3-Ab3 (antibody, V domains shown)
VH: B6 VH with S30N, G31N, S33H, L50G, F52I, I54P, S55F, N59H
VL: B5 VL with P92S, I93S
B14: KLK5-L3-Ab6 (antibody, V domains shown)
VH: B6 VH with S33V, L50G, T57Y, N59V, G99A
VL: B5 VL with P92S, I93S, Y96Q
B15: KLK5-L1-Ab1 (antibody, V domains shown)
VH: B5 VH with E30S, H31S, Y57T, D59Y
VL: B5 VL
B16: KLK5-L1-Ab5 (antibody, V domains shown)
VH: B5 VH with S102D, M103R
VL: B5 VL
notes: also called KLK-L1-Ab5
B17: KLK7-L3-Ab1 (antibody, V domains shown)
VH: QVQLVQSGAEVKKPGSSVKVSCKASGGTFSNYAISWVRQAPGQGLEWMGGIIPIFGTANYAQKFQGRVTITADESTSTAYMELSSLRSEDTAVYYCARGAPNYYGSSSSRGIAFDIWGQGTMVTVSS
VL: B5 VL with Q89V, V91A, P92N, I93A
B18: KLK7-L4-Ab1 (antibody, V domains shown)
VH: QLQLQESGPGLVKPSETLSLTCTVSGGSISSSSYYWGWIRQPPGKGLEWIGSISYSGSTYYNPSLKSRVTISVDTSKNQFSLKLSSVTAADTAVYYCARGAPTYFGAASHYYYYMDVWGKGTTVTVSS
VL: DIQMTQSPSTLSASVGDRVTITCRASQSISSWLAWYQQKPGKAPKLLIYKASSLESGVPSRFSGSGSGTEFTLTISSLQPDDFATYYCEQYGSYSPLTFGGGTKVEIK

Positions count from the first letter of the chain named.

For the first test, the target named is mouse KLK5 (mKLK5) (mouse). In words: cell-based or functional assay.
With B1, the “mKLK5 IC50 (protease inhibition)” value worked out at 1.68 nM and the “mKLK5 IC90 (protease inhibition)” value worked out at 15.6 nM.
As to B2, the “mKLK5 IC50 (protease inhibition)” value came out at 1.82 nM and the “mKLK5 IC90 (protease inhibition)” value was 29.5 nM.
As for B3, the “mKLK5 IC50 (protease inhibition)” value was determined as 45.9 nM and the “mKLK5 IC90 (protease inhibition)” value amounted to 93.2 nM.
Regarding B4, the “mKLK5 IC50 (protease inhibition)” value is 2.21 nM and the “mKLK5 IC90 (protease inhibition)” value worked out at 13.1 nM.
On the same counts, the results for B5 are 4.97 nM and 40.1 nM.
Turning to B6, the “mKLK5 IC50 (protease inhibition)” value amounted to 15 nM and the “mKLK5 IC90 (protease inhibition)” value is 91.3 nM.
On the same counts, the results for B7 are 4.43 nM and 34.6 nM.
In the same order, the values of B8 are 9.26 nM and 81.2 nM.
On the same counts, the results for B9 are 2.17 nM and 10.7 nM.
As to B10, the “mKLK5 IC50 (protease inhibition)” value came out at 81.3 nM and the “mKLK5 IC90 (protease inhibition)” value worked out at 130 nM.
On the same counts, the results for B11 are 4.44 nM and 28.4 nM.
As to B12, the “mKLK5 IC50 (protease inhibition)” value came to 8.27 nM and the “mKLK5 IC90 (protease inhibition)” value was found to be 83.2 nM.
Turning to B13, the “mKLK5 IC50 (protease inhibition)” value worked out at 14.9 nM and the “mKLK5 IC90 (protease inhibition)” value came out at 87 nM.
On the same counts, the results for B14 are 12.7 nM and 80.8 nM.
Regarding B15, the “mKLK5 IC50 (protease inhibition)” value was 29.4 nM and the “mKLK5 IC90 (protease inhibition)” value amounted to 103 nM.
On the same counts, the results for B16 are 4.1 nM and 25 nM.

A further test addresses T1, human KLK5 (hKLK5), active form (human, UniProt Q9Y337 67-293). In words: cell-based or functional assay.
On to B1, for which the “hKLK5 IC50 (protease inhibition)” value came out at 2.04 nM and the “hKLK5 IC90 (protease inhibition)” value worked out at 9.86 nM.
In the same order, the values of B2 are 2.26 nM and 10.2 nM.
In the same order, the values of B3 are 11 nM and 92.9 nM.
In the case of B4, the “hKLK5 IC50 (protease inhibition)” value is 1.71 nM and the “hKLK5 IC90 (protease inhibition)” value is 8.46 nM.
For B5, the “hKLK5 IC50 (protease inhibition)” value was 1.71 nM and the “hKLK5 IC90 (protease inhibition)” value came to 15 nM.
In the same order, the values of B6 are 4.45 nM and 24 nM.
With B7, the “hKLK5 IC50 (protease inhibition)” value amounted to 2.26 nM and the “hKLK5 IC90 (protease inhibition)” value was found to be 13.3 nM.
As for B8, the “hKLK5 IC50 (protease inhibition)” value is 2.49 nM and the “hKLK5 IC90 (protease inhibition)” value stood at 10.6 nM.
As to B10, the “hKLK5 IC50 (protease inhibition)” value turned out to be 12.7 nM and the “hKLK5 IC90 (protease inhibition)” value worked out at 112 nM.
Regarding B11, the “hKLK5 IC50 (protease inhibition)” value was determined as 2.58 nM and the “hKLK5 IC90 (protease inhibition)” value was 10.6 nM.
Regarding B12, the “hKLK5 IC50 (protease inhibition)” value stood at 1.76 nM and the “hKLK5 IC90 (protease inhibition)” value came to 9.81 nM.
As for B13, the “hKLK5 IC50 (protease inhibition)” value worked out at 2.81 nM and the “hKLK5 IC90 (protease inhibition)” value was 11.1 nM.
With B15, the “hKLK5 IC50 (protease inhibition)” value is 3.45 nM and the “hKLK5 IC90 (protease inhibition)” value was found to be 83.1 nM.

In a further test the target is T2, human KLK7 (hKLK7), active form (human, UniProt P49862 30-253).
T2 construct: mature; also called active human KLK7
T2 sequence (P49862 30-253): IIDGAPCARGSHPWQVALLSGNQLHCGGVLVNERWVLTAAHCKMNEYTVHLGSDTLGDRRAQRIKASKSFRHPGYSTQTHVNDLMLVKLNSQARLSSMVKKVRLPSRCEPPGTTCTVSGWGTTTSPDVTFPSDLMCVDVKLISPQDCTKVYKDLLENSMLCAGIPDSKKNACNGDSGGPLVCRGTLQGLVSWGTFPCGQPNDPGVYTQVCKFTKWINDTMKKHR
The experiment in a line: Biacore SPR, antibody captured on Protein A chip, single-cycle kinetics, 25 C. In general terms: In SPR one partner is held on a chip, and binding of the other changes the refractive index at the surface.
Method: (§1) All screening assays were performed at 25 C. The running buffer used was 20 mM HEPES, 300 mM NaCl, 0.01% Tween-20, pH 7.5. Antibodies (1 ug/mL) were captured on Fc2-4 of a Series S ProteinA Sensor Chip (Cytiva) flowing at 10 ul/mL for 30 s. Kinetics measurements were made in single-cycle kinetics mode with a series of 4-5 concentrations with top concentration of 25-100 nM and serial dilution 4-fold. Contact time was typically 300 s and dissociation time ranged from 1800-3600 s. Flow rate of 30 ul/mL was typically used. The sensor chip was regenerated with 10 mM glycine, pH 1.5 with a contact time of 30 s flowing at 50 ul/mL.
Usually Kd stands for the constant that tells how readily two partners part at equilibrium. A higher Kd goes with weaker binding. Regarding B17, the Kd is 0.0205 nM.
For B18, the Kd worked out at 0.219 nM.

The target in the next test is T3, mouse KLK7 (mKLK7) (mouse, UniProt Q91VE3 26-249).
T3 construct: Enzymatically active in the protease assay
T3 sequence (Q91VE3 26-249 limits assumed): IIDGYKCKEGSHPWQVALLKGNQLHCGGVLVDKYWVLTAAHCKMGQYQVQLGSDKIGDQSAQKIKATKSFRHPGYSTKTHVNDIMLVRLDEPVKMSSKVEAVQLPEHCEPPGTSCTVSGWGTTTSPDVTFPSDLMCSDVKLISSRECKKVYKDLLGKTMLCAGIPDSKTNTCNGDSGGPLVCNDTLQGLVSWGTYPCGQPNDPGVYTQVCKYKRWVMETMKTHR
The test is described as above.
Method: as §1
In the case of B17, the affinity, expressed as Kd, was 9.03 nM.
As to B18, the Kd is 6 nM.

Another test has as its target T2, human KLK7 (hKLK7), active form. The experiment in a line: cell-based or functional assay.
Consider B17, for which the “hKLK7 IC50 (protease inhibition)” value worked out at 0.37 nM and the “hKLK7 IC90 (protease inhibition)” value was determined as 10.5 nM.
On to B18, for which the “hKLK7 IC50 (protease inhibition)” value is 0.52 nM and the “hKLK7 IC90 (protease inhibition)” value is 14.9 nM.

The next test has as its target T3, mouse KLK7 (mKLK7). The experiment in a line: cell-based or functional assay.
For B17, the “mKLK7 IC50 (protease inhibition)” value was 10.9 nM and the “mKLK7 IC90 (protease inhibition)” value worked out at 212 nM.
For B18, the “mKLK7 IC50 (protease inhibition)” value came to 16.3 nM and the “mKLK7 IC90 (protease inhibition)” value is 118 nM.

For the next test, the target named is T4, mouse KLK5 (mKLK5) (mouse).
T4 construct: Enzymatically active in the protease assay
In words: Biacore SPR, antibody captured on Protein A chip, single-cycle kinetics, 25 C.
Method: as §1
As for B1, the Kd was found to be 0.47 nM.
Same read-out and setting: for B2 the value was 0.59 nM; for B3, 20.5 nM.
B4 yielded a Kd of 0.44 nM.
B5 had a dissociation constant (Kd) of 0.32 nM.
Same read-out and setting: the result for B6 reads 3.8 nM.
On the same count and under the same terms, the result for B7 reads 0.41 nM; that for B8, 0.66 nM.
On the same count and under the same terms, for B9 the value was 1.4 nM.
Molecule B10 showed a Kd of 16.6 nM.
Take B11: the Kd came out at 3.4 nM.
Regarding B12, the Kd was found to be 8.8 nM.
The same measure, in the same setting: for B13 the value was 7.2 nM; for B14, 12 nM; for B15, 4.44 nM.
The same measure, in the same setting: the result for B16 reads 0.26 nM.

The next test has as its target T1, human KLK5 (hKLK5), active form. The description is as above.
Method: as §1
Regarding B3, the Kd amounted to 2.53 nM.
For the molecule B4, the affinity, expressed as Kd, was 0.003 nM.
With B10, the affinity, expressed as Kd, was 2.62 nM.
On the same count and under the same terms, for B15 the value was 0.783 nM.

The record behind these values is patent US20260258155A1 (TRIVENI BIO, published 2026).
